B1: ZFYVE27^WT (full-length ZFYVE27, E2- or c-Myc-tagged, in mammalian cells) (natural protein, human, UniProt Q5T4F4-2 1-404, looked up)
chain: MQTSEREGSGPELSPSVMPEAPLESPPFPTKSPAFDLFNLVLSYKRLEIYLEPLKDAGDGVRYLLRWQMPLCSLLTCLGLNVLFLTLNEGAWYSVGALMISVPALLGYLQEVCRARLPDSELMRRKYHSVRQEDLQRGRLSRPEAVAEVKSFLIQLEAFLSRLCCTCEAAYRVLHWENPVVSSQFYGALLGTVCMLYLLPLCWVLTLLNSTLFLGNVEFFRVVSEYRASLQQRMNPKQEEHAFESPPPPDVGGKDGLMDSTPALTPTEDLTPGSVEEAEEAEPDEEFKDAIEEDDEGAPCPAEDELALQDNGFLSKNEVLRSKVSRLTERLRKRYPTNNFGNCTGCSATFSVLKKRRSCSNCGNSFCSRCCSFKVPKSSMGATAPEAQRETVFVCASCNQTLSK
notes: numbers count on: this 404-residue isoform; Each copy carries only one tag: E2 (vector pQM-N-Tag A) or six c-Myc tags (vector pCS2-myc); The two differently tagged copies are written as one molecule because the protein is tested against itself; With the E2-tagged deletion constructs the c-Myc copy was used; with GFP-Spastin and in the sucrose gradient the E2 copy; also called E2-ZFYVE27^WT; …
B2: endogenous ZFYVE27 of NSC34 cells (natural protein, mouse (endogenous in NSC34), UniProt Q3TXX3 1-415, looked up)
chain: MQTSDRDLSGPEASPSGMPEVLSECPPAPTKSAAFDLFNLVLSYKRLEIYLEPLKDAGDGVRYLLRWQMPLCSLLTCLGLNILFLTLNEGAWYSMGALMISVPALLGYLQEVCRGQLPESELMRRKYHSIRQEDLQRVRLSRVHLSRPEAVAEVKSFLIQLEAFLARLCYTCESAYRVLHWENPVVSSQFYGALLGMVCMLYLLPLCWVLALLNSTLFLGNGDFFRVVCEYRACLQRRMNPRQEECACESSALQGAGGRGLLDSSPAPTPTEDLTPGSVEEAEEAEPDEEFKDAIEETHLVVLEDEEGTPCPAEDELTLQDNGFLSKNEVLRSKVSRLTERLRKRYPTNNFGNCAGCAATFSVLKKRRSCSNCGNSFCSRCCSFKVPRSSMGATAPEAQRETVCVCASCNQTLSK
notes: ZFYVE27 expressed endogenously in NSC34 (a mouse embryonic spinal cord-neuroblastoma hybrid cell line); also called mo-ZFYVE27; di-ZFYVE27

How the values were obtained:
[1] = target: the molecule itself; assay: SDS-PAGE and immunoblot (SDS-resistant dimer); lysates of NIH-3T3 overexpressing E2-ZFYVE27^WT or c-Myc-ZFYVE27^WT, immunoblot with ZFYVE27 antibody
[2] = target: the molecule itself; assay: SDS-PAGE and immunoblot (SDS-resistant dimer); NSC34 cell extract, cytosolic (S-100) and membrane (P-100) fractions, immunoblot with ZFYVE27 antibody

Protein | stoichiometry N [1] | stoichiometry N [2]
B1 | 2 | –
B2 | – | 2

Reference: PMC3247280, “Oligomerization of ZFYVE27 (Protrudin) Is Necessary to Promote Neurite Extension” (PLoS ONE, 2011)
